Patent US20090297503A1 (Chugai, published 2009)

Legend:
[1] = target: T1, Factor VIII A1 subunit (human, UniProt P00451 20-391); test: ELISA: Factor VIII A1 subunit (50 nM) coated on microtiter wells, biotinylated moAb216 added, detected with peroxidase-conjugated streptavidin, absorbance at 492 nm
T1 construct: only the A1 subunit stood in the assay; also called A1 domain
T1 sequence: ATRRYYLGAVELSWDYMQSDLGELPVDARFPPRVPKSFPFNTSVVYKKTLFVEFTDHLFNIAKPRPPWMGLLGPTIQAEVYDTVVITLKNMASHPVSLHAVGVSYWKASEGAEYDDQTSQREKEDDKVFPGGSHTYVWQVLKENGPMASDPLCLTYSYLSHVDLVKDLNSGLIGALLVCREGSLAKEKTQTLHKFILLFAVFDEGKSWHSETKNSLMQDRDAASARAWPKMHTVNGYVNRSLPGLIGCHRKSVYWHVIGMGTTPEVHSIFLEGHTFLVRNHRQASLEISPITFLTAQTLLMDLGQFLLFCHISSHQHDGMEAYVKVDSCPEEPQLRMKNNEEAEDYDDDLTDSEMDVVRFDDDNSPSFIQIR
Experimental: (§1) Microtiter wells were coated with Factor VIII or its subunit (50 nM) in 20 mM Tris, and 0.15 M NaCl, pH 7.4, overnight at 4° C. The wells were washed with PBS containing 0.01% Tween 20 and were blocked with PBS containing 5% HSA for two hours at 37° C. The indicated concentrations of biotinylated-moAb216 were then added in 20 mM HEPES, 0.1 M NaCl, 5 mM CaCl₂, and 0.01% Tween 20, pH 7.2 (HBS-buffer) containing 1% HSA for two hours at 37° C. Bound IgG was quantified by the addition of peroxidase-conjugated streptavidin and O-phenylenediamine dihydrochloride substrate. Reactions were stopped by the addition of 2 M H₂SO₄, and absorbance was measured at 492 nm. The amount of nonspecific binding of anti-mouse peroxidase-conjugated IgG in the absence of moAb216 was <5% of the total signal. Specific binding was recorded after subtracting the nonspecific binding.

[2] = target: T2, recombinant human blood coagulation Factor VIII (Kogenate FS) (human, UniProt P00451 20-2351); test: cell-based or functional assay
[3] = target: T3, Factor VIII light chain (human, UniProt P00451 1668-2351); test: ELISA: Factor VIII light chain (50 nM) coated on microtiter wells, biotinylated moAb216 added, detected with peroxidase-conjugated streptavidin, absorbance at 492 nm
T3 construct: only the light chain part stood in the assay; also called LCh
T3 sequence: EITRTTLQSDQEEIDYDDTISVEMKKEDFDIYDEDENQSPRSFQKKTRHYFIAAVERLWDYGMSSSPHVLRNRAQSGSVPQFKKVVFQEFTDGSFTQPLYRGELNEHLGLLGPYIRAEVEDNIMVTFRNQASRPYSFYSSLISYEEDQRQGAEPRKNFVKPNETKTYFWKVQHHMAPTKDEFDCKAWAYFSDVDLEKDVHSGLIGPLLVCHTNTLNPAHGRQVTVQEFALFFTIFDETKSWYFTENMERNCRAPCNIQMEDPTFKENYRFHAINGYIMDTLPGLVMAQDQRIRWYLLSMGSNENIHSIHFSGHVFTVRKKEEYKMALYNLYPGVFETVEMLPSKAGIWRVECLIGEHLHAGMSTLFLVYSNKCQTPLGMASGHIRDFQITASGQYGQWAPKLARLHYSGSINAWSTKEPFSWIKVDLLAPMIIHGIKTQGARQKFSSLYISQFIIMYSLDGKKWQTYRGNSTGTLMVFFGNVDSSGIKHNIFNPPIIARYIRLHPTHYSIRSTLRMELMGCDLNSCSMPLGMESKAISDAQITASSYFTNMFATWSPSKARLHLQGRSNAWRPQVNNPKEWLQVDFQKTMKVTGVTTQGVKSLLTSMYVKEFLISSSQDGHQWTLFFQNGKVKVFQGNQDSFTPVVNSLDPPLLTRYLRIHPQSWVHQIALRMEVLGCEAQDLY
Experimental: as §1

[4] = target: T2, recombinant human blood coagulation …; test: SPR (BIAcore X), moAb216 coupled to CM5 chip, Factor VIII in flow, 37 C
Experimental: (§2) The kinetics of moAb216 interaction with Factor VIII was determined by SPR-based assay using a BIAcore X instrument (Biacore AB, Uppsala, Sweden) as previously reported. moAb216 was covalently coupled to the surface of CM5 chip at a coupling density of up to 5 ng/mm². Binding (association) of the ligand was monitored in the running buffer (10 mM HEPES pH 7.4, 0.1 M NaCl, 1 mM CaCl₂, 0.005% polysorbate 20) for two minutes at a flow rate 20 μl/min. The dissociation of bound ligand was recorded over a two-minute period by replacing the ligand-containing buffer with buffer only. The level of nonspecific binding as a result of ligand binding to the uncoated chip was subtracted from the signal. Reactions were performed at 37° C. The rate constants for association (kₐₛₛₒ) and dissociation (kdiss) were determined by nonlinear regression analysis using the evaluation software provided by Biacore AB. The dissociation constant (Kd) was calculated as kdiss/kₐₛₛₒ.
(§3) Reactions were performed as described under “Materials and Methods”. Parameter values were calculated by nonlinear regression analysis using the evaluation software provided by Biacore AB. ^{#}Values were calculated as kdiss/kₐₛₛₒ. *not determined

[5] = target: T2, recombinant human blood coagulation …; test: ELISA: Factor VIII (50 nM) coated on microtiter wells, biotinylated moAb216 added, detected with peroxidase-conjugated streptavidin, absorbance at 492 nm
Experimental: as §1

[6] = target: T4, Factor VIII heavy chain (human, UniProt P00451 20-1667, limits assumed); test: SPR (BIAcore X), moAb216 coupled to CM5 chip, heavy chain in flow, 37 C; calculated as kdiss/kasso
T4 construct: only the heavy chain part stood in the assay; also called HCh
Experimental: as §2, §3

[7] = target: T2, recombinant human blood coagulation …; test: SPR (BIAcore X), moAb216 coupled to CM5 chip, Factor VIII in flow, 37 C; calculated as kdiss/kasso
Experimental: as §2, §3

[8] = target: T5, Factor VIII A2 subunit (human, UniProt P00451 392-759); test: SPR (BIAcore X), moAb216 coupled to CM5 chip, A2 in flow, 37 C
T5 construct: only the A2 subunit stood in the assay; also called A2 domain
T5 sequence: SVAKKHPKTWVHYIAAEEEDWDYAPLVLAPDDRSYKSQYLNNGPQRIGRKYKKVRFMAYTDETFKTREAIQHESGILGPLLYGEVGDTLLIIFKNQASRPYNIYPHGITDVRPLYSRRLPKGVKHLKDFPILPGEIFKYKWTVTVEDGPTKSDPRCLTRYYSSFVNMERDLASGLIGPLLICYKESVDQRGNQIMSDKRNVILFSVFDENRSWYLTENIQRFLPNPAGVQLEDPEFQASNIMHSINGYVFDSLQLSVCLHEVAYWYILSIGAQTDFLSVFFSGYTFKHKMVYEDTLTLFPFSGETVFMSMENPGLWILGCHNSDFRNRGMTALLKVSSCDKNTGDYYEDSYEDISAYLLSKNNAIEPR
Experimental: as §2, §3

[9] = target: T4, Factor VIII heavy chain; test: ELISA: Factor VIII heavy chain (50 nM) coated on microtiter wells, biotinylated moAb216 added, detected with peroxidase-conjugated streptavidin, absorbance at 492 nm
Experimental: as §1

[10] = target: T4, Factor VIII heavy chain; test: SPR (BIAcore X), moAb216 coupled to CM5 chip, heavy chain in flow, 37 C
Experimental: as §2, §3

[11] = target: T5, Factor VIII A2 subunit; test: SPR (BIAcore X), moAb216 coupled to CM5 chip, A2 in flow, 37 C; calculated as kdiss/kasso
Experimental: as §2, §3

B1: anti-Factor VIII monoclonal antibody moAb216 (antibody, V domains shown)
VH: EVRLVESGGGLVKPGGSLKLSCAASEFTFSSYSMSWVRQTPEKRLEWVASINSGGRTFYPDSVKGRFTISRDNARNILVLQMSSLRSEDTAMYYCARVIYYDYGAYALDYWGQGTSLTVSS
VL: EIVLTQSPALMAAYPGEKVTITCSVSSSISSSNLHWYQQKSETSPKLWIYGTSNLASGVPVRFSGSGSGTSYSLTISSMEAEDAATYYCQQWNIYPLTFGAGTKLELK
notes: It was biotinylated for the ELISAs and coupled covalently to a CM5 chip for SPR; also called moAb216 IgG; biotinylated moAb216
**Q.** Does B1 bind [1]?
**A.** no binding (tested: 1.25 µg/ml)

**Q.** And the “percentage of Factor Xa cleavage at Arg372 (A2/A1-A2 ratio, densitometry)” value [2]?
**A.** ≤ 2 times

**Q.** What about the “rate of thrombin cleavage at Arg372 (A2 product/A1-A2 substrate ratio, densitometry of Western blot)” value [2] of the same binder?
**A.** ~2 times

**Q.** Does B1 bind [3]?
**A.** no binding (tested: 1.25 µg/ml)

**Q.** What about the koff [4] of the same binder?
**A.** 0.001 s⁻¹

**Q.** And the kon [4]?
**A.** 930000 M⁻¹ s⁻¹

**Q.** What about the “EC50 (read off the curve)” value [5] of the same binder?
**A.** ~0.08 µg/mL

**Q.** And the Kd [6]?
**A.** 3 nM

**Q.** What about the Kd [7] of the same binder?
**A.** 1.1 nM

**Q.** What about the koff [8] of the same binder?
**A.** 0.0002 s⁻¹

**Q.** And the kon [8]?
**A.** 238000 M⁻¹ s⁻¹

**Q.** And the “EC50 (read off the curve)” value [9]?
**A.** ~0.09 µg/mL

**Q.** And the koff [10]?
**A.** 0.0009 s⁻¹

**Q.** And the kon [10]?
**A.** 294000 M⁻¹ s⁻¹

**Q.** What about the Kd [11] of the same binder?
**A.** 0.8 nM
